Experimental data taken from US20140223606, “COMPOSITIONS AND METHODS COMPRISING SEQUENCES HAVING MEGANUCLEASE ACTIVITY” (PIONEER HI BRED INTERNATIONAL INC, published 2014).

Key:
Experiment in all cases: cell_activity; yeast 30 C; 22 C: 0
Details in all cases: tags: NLS, 6xHis
LIG3-4(A6) = biological target: T1, LIG3-4(A6) (artificial)
T1 chain: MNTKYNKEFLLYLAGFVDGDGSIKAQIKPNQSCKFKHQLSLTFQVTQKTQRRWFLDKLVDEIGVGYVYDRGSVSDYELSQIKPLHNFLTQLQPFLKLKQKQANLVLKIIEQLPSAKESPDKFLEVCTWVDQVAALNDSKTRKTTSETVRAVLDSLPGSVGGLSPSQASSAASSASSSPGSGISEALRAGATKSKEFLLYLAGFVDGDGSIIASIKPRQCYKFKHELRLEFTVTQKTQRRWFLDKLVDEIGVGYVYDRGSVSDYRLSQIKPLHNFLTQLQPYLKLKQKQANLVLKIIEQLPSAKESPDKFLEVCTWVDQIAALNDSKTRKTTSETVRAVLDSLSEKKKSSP
Procedure: (§1) A 3 mL culture of selective media (MP Biomedical) was inoculated with a single colony of the yeast screening strain and grown at 30° C. overnight. On the following day, a 50 ml YPD culture (MP Biomedical) was started with 2 ml of the overnight culture and grown at 30° C. overnight. On the following day, the cells were harvested by centrifugation at 4000 rpm. The cells were resuspended in 100 ml ice cold water and centrifuged again. The cells were then washed in 1.2 M sorbitol, followed by treatment with 2 ml of 10 mM Tris pH 8.0, 1 mM EDTA, 100 mM Lithium acetate, 10 mM DTT, 0.6M sorbitol for 30 minutes at 30° C. with shaking. The cells were recovered by centrifugation, washed in 40 ml 1.2M sorbitol and finally resuspended in 250 microliters of 1.2M sorbitol. 50 microliter aliquots were transferred to test tubes on ice. Up to 5 microliters of DNA (100-500 nanograms) were added. The suspension was transferred to a 0.2 cm electroporation cuvette, on ice. Electroporation was performed with a pulse charge at 1.5 kV, 200 ohms, 25 microF (pulse time of 5 milliseconds). 1 mL YPD media (MP Biomedical) was added and the cells were allowed to recover at 30° C. for 1-2 hr. The cells were centrifuged, resuspended in 100 uL 1M sorbitol and plated on selective media lacking leucine and containing 2% galactose. The resulting yeast colonies were incubated at various temperatures ranging from 22 to 37 degrees Celsius for 7-10 days. I-CreI and meganucleases derived from it have maximal activity at or above 37 degrees Celsius. Screening was performed at a range of temperatures from 22 to 37 degrees in order to observe increases in activity at lower temperatures which are relevant to certain biological systems (eg. plant cells, plant cell cultures, etc). At that time the red/white sectoring phenotype, indicative of meganuclease activity was observed. Colonies with increased white sectoring over the parental meganuclease (indicating colonies expressing a meganuclease with increased meganuclease activity), also referred to as “hits” and sometimes completely white, were isolated for further analysis.

LIG3-4(B36) = biological target: T2, LIG3-4(B36) (artificial)
T2 chain: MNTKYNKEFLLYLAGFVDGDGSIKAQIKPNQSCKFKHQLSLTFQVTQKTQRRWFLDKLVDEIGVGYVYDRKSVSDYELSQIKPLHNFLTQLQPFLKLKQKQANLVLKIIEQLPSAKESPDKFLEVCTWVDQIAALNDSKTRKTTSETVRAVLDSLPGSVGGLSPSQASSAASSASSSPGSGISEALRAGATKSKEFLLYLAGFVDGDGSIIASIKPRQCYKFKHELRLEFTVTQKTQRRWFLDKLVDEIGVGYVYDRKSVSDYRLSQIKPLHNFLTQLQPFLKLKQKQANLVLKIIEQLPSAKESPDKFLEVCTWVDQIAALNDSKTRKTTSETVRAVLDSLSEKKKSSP
Procedure: as §1

LIG3-4(B24) = biological target: T3, LIG3-4(B24) (artificial)
T3 chain: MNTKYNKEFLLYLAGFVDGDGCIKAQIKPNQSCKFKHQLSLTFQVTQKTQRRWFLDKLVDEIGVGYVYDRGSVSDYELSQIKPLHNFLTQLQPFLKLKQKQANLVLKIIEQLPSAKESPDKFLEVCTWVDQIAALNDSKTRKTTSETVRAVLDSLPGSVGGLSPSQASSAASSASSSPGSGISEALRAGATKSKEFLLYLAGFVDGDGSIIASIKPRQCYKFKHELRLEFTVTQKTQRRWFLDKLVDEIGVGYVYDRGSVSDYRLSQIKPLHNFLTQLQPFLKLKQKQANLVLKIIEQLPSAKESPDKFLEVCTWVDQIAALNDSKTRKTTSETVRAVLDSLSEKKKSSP
Procedure: as §1

LIG3-4(B38) = biological target: T4, LIG3-4(B38) (artificial)
T4 chain: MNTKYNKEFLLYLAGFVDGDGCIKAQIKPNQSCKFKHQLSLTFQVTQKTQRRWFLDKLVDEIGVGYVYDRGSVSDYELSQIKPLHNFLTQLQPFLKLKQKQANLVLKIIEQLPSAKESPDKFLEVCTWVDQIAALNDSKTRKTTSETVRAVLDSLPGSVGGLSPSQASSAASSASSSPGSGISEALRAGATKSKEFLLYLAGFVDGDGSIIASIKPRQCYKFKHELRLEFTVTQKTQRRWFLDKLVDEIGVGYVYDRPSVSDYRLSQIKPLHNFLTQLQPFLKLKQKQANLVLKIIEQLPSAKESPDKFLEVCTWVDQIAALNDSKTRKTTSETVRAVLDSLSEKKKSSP
Procedure: as §1

LIG3-4(B55) = biological target: T5, LIG3-4(B55) (artificial)
T5 chain: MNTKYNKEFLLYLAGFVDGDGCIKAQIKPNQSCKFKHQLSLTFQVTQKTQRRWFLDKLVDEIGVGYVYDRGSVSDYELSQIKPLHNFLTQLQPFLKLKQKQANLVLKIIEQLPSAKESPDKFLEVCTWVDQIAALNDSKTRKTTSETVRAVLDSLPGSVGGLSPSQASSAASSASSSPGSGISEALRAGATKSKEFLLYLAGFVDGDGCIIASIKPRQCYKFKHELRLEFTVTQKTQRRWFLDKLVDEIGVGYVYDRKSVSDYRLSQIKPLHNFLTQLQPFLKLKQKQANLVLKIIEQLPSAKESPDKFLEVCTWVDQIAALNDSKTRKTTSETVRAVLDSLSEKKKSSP
Procedure: as §1

B1: LIG3-4 recognition site (dsDNA)
DNA 1: ATATACCTCACACGTACGCGTA
DNA 2: TACGCGTACGTGTGAGGTATAT
LIG3-4(A6)
  activity: 3 score 0-4
LIG3-4(B36)
  activity: 4 score 0-4
LIG3-4(B24)
  activity: 4 score 0-4
LIG3-4(B38)
  activity: 4 score 0-4
LIG3-4(B55)
  activity: 4 score 0-4
